The results in this text go back to US20130195908A1.

Experiment [1] has as its target Lyb-2.1 antigen expressed at the surface of B lymphocytes (mouse) (UniProt P21855). The experiment in a line: cell-based or functional assay.
Experiment [2] has as its target MHC class II molecule I-E^d expressed at the surface of A20 cells and mouse splenocytes (mouse) (UniProt P01904). The experiment in a line: flow cytometry on mouse splenocytes, 10 nM complex, B cells gated with anti-CD19-PE.
The target is the same in experiment [3]. The experiment in a line: cell-based or functional assay.

Chain of UniProt P01904 (P01904 26-255, chain 1 of 2): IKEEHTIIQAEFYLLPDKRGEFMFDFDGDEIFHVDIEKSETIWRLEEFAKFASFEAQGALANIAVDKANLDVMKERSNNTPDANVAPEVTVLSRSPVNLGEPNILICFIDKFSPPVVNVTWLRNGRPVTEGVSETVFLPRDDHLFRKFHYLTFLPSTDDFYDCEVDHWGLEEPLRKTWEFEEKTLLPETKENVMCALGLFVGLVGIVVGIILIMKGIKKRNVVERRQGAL
Chain of UniProt P01904 (P01915 32-264, chain 2 of 2, further chain): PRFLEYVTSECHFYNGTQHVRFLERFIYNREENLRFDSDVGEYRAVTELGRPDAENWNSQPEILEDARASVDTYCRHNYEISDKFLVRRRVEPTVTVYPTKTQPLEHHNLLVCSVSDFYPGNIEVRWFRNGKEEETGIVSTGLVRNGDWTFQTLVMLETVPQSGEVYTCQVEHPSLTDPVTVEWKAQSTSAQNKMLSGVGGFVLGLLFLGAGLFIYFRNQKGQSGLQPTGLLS
Chain of UniProt P21855 (P21855 whole entry): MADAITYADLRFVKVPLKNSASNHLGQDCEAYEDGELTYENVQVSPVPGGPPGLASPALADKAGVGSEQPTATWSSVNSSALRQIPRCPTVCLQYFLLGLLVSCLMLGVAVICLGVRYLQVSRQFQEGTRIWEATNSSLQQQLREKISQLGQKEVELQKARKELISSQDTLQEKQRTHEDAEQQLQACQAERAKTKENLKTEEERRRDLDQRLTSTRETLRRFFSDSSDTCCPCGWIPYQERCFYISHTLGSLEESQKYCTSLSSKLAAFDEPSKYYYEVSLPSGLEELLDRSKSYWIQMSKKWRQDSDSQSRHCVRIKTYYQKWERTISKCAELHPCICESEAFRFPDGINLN

For “10-1.D.2/ZZDTR-BD complex (mouse monoclonal IgG2a 10-1.D.2, anti-Lyb-2.1, complexed with ZZDTR-BD)”, the amount of ZZDTR-BD needed to reach the same level of T4B6 stimulation (IL-2 secretion), A20 cells as APCs, against free ZZDTR-BD in experiment [1] amounted to 3.8 times lower.

In turn, “14-4-4S/ZZDTR-BD complex (mouse monoclonal IgG2a 14-4-4S, anti-MHC class II I-E^d, complexed with ZZDTR-BD)” gave a percent of B lymphocytes labeled in experiment [2] of 68.5%. For the same substance, in experiment [3], the amount of ZZDTR-BD needed to reach the same level of T4B6 stimulation (IL-2 secretion), A20 cells as APCs, against free ZZDTR-BD worked out at 13.4 times lower and the amount of ZZDTR-BD needed to reach the same level of T4B6 stimulation (IL-2 secretion), splenocytes as APCs, against free ZZDTR-BD worked out at 5.2 times lower.
